In patent US20170022292A1 (Novartis, published 2017):

Assays:
[1] = target: T1, cynomolgus monkey FXI zymogen (cynomolgus monkey, UniProt A0A2K5VVW4 19-624); assay: solution equilibrium titration (SET); apparent KD, N=2; cynomolgus monkey FXI zymogen; apparent KD, SET, N=2
T1 construct: also called free FXI (FXIf) in cynomolgus plasma

[2] = target: T2, human FXI catalytic domain (residues 388-625, Swissprot P03951) (human, UniProt P03951 388-625); assay: SPR (BIACORE T200), IgG captured by goat anti-human IgG-Fc, FXI catalytic domain 0-200 nM as analyte, 25 C, 1:1 model, n=2
T2 construct: it is treated here as the same molecule; also called FXI CD; FXIa CD
T2 sequence (P03951 388-625 limits assumed, form in doubt, one chain of several): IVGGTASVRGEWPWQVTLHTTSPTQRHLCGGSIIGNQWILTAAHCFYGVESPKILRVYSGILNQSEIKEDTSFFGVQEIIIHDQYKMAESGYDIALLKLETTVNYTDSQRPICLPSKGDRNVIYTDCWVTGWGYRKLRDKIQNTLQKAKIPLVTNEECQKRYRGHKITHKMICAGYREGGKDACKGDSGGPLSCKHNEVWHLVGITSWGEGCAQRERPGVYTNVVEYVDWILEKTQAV

[3] = target: T3, activated cynomolgus monkey FXI (cynomolgus monkey, UniProt A0A2K5VVW4 19-387; A0A2K5VVW4 388-625); assay: solution equilibrium titration (SET); apparent KD, N=2; activated cynomolgus monkey FXI; apparent KD, SET, N=2
T3 construct: also called cynomolgus monkey FXIa; cynomolgus monkey FXI (active form)
T3 sequence (chain, as listed by the source, form in doubt, chain 1 of 2): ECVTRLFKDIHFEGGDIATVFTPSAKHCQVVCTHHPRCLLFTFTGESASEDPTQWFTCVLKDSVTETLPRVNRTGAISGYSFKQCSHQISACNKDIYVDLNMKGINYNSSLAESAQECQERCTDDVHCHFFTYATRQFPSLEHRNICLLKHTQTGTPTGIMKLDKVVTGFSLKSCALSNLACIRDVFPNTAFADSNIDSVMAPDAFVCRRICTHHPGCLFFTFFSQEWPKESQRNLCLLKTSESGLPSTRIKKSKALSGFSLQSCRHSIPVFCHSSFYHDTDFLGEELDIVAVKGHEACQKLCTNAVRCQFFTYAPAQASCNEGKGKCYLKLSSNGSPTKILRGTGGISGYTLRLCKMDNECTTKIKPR
T3 sequence (chain, as listed by the source, form in doubt, chain 2 of 2): as the sequence (P03951 388-625 limits assumed, form in doubt, one chain of several) above, with S59I, E156D, V225L, V238A counted along it

[4] = target: T4, human FXI zymogen (human, UniProt P03951 19-625); assay: cell-based or functional assay
T4 sequence (P03951 19-625 C226S limits assumed): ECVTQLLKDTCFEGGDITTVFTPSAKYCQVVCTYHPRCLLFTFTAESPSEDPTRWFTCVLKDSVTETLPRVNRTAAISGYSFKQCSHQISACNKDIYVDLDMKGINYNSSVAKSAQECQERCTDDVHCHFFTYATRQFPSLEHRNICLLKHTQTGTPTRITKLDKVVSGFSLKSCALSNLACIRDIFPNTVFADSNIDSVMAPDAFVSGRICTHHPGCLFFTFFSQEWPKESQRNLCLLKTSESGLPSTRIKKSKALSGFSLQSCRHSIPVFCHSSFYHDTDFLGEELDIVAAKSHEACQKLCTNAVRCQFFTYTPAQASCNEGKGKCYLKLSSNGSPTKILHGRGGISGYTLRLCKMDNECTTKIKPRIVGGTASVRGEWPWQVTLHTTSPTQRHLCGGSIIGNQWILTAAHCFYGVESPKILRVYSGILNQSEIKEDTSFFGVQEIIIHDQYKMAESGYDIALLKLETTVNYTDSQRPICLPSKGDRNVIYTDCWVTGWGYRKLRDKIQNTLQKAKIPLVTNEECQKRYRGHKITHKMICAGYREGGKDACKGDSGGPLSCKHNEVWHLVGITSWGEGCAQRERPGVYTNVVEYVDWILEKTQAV

[5] = target: T5, human FXI activated (human Factor XIa, full length) (human, UniProt P03951 19-387; P03951 388-625); assay: cell-based or functional assay
T5 sequence (P03951 19-387 C226S limits assumed, form in doubt, chain 1 of 2): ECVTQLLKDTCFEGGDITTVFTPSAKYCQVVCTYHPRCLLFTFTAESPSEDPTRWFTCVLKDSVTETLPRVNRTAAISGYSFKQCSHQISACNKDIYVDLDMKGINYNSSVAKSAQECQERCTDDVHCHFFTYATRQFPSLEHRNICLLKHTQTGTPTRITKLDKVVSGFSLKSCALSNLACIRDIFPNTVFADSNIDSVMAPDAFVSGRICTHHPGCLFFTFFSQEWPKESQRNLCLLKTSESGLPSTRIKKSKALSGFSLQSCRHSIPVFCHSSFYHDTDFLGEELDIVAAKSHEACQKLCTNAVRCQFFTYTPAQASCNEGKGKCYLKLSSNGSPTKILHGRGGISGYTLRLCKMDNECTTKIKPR
T5 sequence (P03951 388-625 limits assumed, form in doubt, chain 2 of 2): as the sequence (P03951 388-625 limits assumed, form in doubt, one chain of several) above

[6] = target: T4, human FXI zymogen; assay: solution equilibrium titration (SET), MSD ECL read-out, 1:2 fit, n=3; apparent KD (avidity possible)
[7] = target: T5, human FXI activated (human Factor XIa, …); assay: as above
[8] = target: T4, human FXI zymogen; assay: SET
[9] = target: T4, human FXI zymogen; assay: solution equilibrium titration (SET), MSD ECL read-out, 1:1 fit, n=3
[10] = target: T5, human FXI activated (human Factor XIa, …); assay: as above
[11] = target: T2, human FXI catalytic domain (residues …); assay: SPR (BIACORE T200), Fab amine-coupled on CM5 chip, FXI catalytic domain 0-200 nM as analyte, 25 C, 1:1 model, n=3
[12] = target: T4, human FXI zymogen; assay: SET KD compared with SPR KD for the FXI catalytic domain
[13] = target: T5, human FXI activated (human Factor XIa, …); assay: as above

T1 sequence (A0A2K5VVW4 entry or part of it): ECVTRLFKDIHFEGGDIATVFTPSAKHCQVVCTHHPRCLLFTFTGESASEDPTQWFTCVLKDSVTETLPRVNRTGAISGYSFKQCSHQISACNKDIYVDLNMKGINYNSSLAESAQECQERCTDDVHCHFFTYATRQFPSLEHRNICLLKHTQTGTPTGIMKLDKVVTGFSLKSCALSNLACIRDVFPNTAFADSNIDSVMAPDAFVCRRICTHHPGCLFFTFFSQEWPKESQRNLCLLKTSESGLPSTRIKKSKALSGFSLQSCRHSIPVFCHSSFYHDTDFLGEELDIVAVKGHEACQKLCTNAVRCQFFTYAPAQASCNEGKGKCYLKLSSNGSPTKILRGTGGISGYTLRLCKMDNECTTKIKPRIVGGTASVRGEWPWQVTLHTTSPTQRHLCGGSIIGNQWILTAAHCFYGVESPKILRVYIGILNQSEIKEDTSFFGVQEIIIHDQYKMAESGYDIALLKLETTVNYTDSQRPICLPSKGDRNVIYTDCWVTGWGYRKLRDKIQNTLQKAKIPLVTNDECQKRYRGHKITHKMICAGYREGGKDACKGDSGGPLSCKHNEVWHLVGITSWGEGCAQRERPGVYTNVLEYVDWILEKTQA

Kd [1] | Kd [2] | koff [2] | kon [2] | Kd [3] | IC50, inhibition of thrombin generation in the TGA with pooled human plasma [4] | IC50, inhibition of the enzymatic activity of full length human FXIa (cleavage of the fluorescent peptide D-Leu-Pro-Arg*Rh110-D-Pro) [5] | Kd [6] | Kd [7] | fold higher affinity than to the activated FXI [8] | Kd [9] | Kd [10] | Kd [11] | koff [11] | kon [11] | fold higher affinity than to the catalytic domain [12] | fold higher affinity than to the catalytic domain [13] | Binder
0.005 nM | 21 nM | 0.00088 s⁻¹ | 42000 M⁻¹ s⁻¹ | 0.0125 nM | 24 nM | ~0.16 nM | 0.0013 nM | 0.0047 nM | – | – | – | – | – | – | – | – | NOV1401 (human IgG1/lambda antibody with D265A and P329A in the Fc) (antibody, V domains shown, also called NOV1401-IgG; NOV1401-Antibody) VH: QVQLLESGGGLVQPGGSLRLSCAASGFTFSTAAMSWVRQAPGKGLEWVSGISGSGSSTYYADSVKGRFTISRDNSKNTLYLQMNSLRAEDTAVYYCARELSYLYSGYYFDYWGQGTLVTVSS VL: QSVLTQPPSASGTPGQRVTISCSGSSSNIGSNDVSWYQQLPGTAPKLLIYKNYNRPSGVPDRFSGSKSGTSASLAISGLQSEDEADYYCSAWDQRQFDVVFGGGTKLTVLG
– | – | – | – | – | – | – | – | – | 5 fold | 0.062 nM | 0.305 nM | 19 nM | 0.00061 s⁻¹ | 32000 M⁻¹ s⁻¹ | 300 fold | 66 fold | NOV1401-Fab (Fab, V domains shown, also called Fab of the NOV1401 antibody; Fab portion of NOV1401) VH: QVQLLESGGGLVQPGGSLRLSCAASGFTFSTAAMSWVRQAPGKGLEWVSGISGSGSSTYYADSVKGRFTISRDNSKNTLYLQMNSLRAEDTAVYYCARELSYLYSGYYFDYWGQGTLVTVSS VL: QSVLTQPPSASGTPGQRVTISCSGSSSNIGSNDVSWYQQLPGTAPKLLIYKNYNRPSGVPDRFSGSKSGTSASLAISGLQSEDEADYYCSAWDQRQFDVVFGGGTKLTVLG
